In patent publication US20250066499A1 (SUNSHINE GUOJIAN PHARMACEUTICAL SHANGHAI, published 2025):
Residue numbers refer to the chain shown, from its start.

Tests used:
Assay in all cases: ELISA; decline multiple of EC50 against CD73-ND
[1] = molecular target: T1, CD73-ND-L133A (human, UniProt P21589 27-317)
T1 construct: Alanine mutant of CD73-ND
T1 sequence: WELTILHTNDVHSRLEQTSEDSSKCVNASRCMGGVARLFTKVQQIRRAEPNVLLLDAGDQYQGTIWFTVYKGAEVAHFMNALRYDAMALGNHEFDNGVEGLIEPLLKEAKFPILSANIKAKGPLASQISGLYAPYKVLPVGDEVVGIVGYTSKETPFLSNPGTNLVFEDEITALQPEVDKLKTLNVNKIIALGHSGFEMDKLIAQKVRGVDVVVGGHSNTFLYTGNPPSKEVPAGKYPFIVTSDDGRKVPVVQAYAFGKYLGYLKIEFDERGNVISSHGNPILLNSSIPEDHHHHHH
Experimental: (§1) The ELISA plates were coated with SA protein diluted to 1.5 μg/mL in coating buffer (50 mM carbonate coating buffer, pH 9.6) and incubated overnight at 4° C. The supernatant was discarded, and the plates were washed three times with PBST. Then, 5% skimmed milk powder prepared with PBS was added for blocking and the plates were incubated for 2 h at 37° C. After washing the plates once with PBST, CD73-biotin protein (prepared by biotinylating CD73-His protein according to the EZ-Link NHS-Biotin Reagent instructions) was diluted to 0.5 μg/mL and added at 100 μL/well for incubation at room temperature for 1 h. The plates were washed three times with PBST, and the prepared murine-derived monoclonal antibodies against human CD73 were serially diluted with 1% BSA buffer prepared with PBST and added to the ELISA plates at 100 μl/well. The plates were incubated at 37° C. for 1 h. After washing the plates three times with PBST, HRP-labeled goat anti-mouse IgG secondary antibody was added and the plates were incubated for 30 min at 37° C. After washing the plates three times with PBST, the residual droplets were patted dry on absorbent paper as much as possible. Then, 100 μl of TMB color developing solution was added to each well, and the plates were incubated in the dark at room temperature for 5 min for color development. Subsequently, 50 μl of 2M H₂SO₄ stop solution was added to each well to terminate the substrate reaction. The OD values were read at 450 nm using a multimode microplate reader to analyze the binding ability of the tested antibodies to the target antigen human CD73-His.
(§2) Referring to the experimental method in Example 3, the affinity of 48A11-HuV33 for various mutant proteins of CD73-ND was determined. The SA protein was diluted to 1 μg/mL for coating the ELISA plates, and the biotinylated CD73 protein (CD73-biotin) was used at a concentration of 0.1 μg/mL.

[2] = molecular target: T2, CD73-ND-P134A (human, UniProt P21589 27-317)
T2 construct: Alanine mutant of CD73-ND
T2 sequence: T1 sequence with A133L, P134A
Experimental: as §1, §2

[3] = molecular target: T3, CD73-ND-Y135A (human, UniProt P21589 27-317)
T3 construct: Alanine mutant of CD73-ND
T3 sequence: T1 sequence with A133L, Y135A
Experimental: as §1, §2

[4] = molecular target: T4, CD73-ND-K136A (human, UniProt P21589 27-317)
T4 construct: Alanine mutant of CD73-ND
T4 sequence: T1 sequence with A133L, K136A
Experimental: as §1, §2

[5] = molecular target: T5, CD73-ND-L138A (human, UniProt P21589 27-317)
T5 construct: Alanine mutant of CD73-ND
T5 sequence: T1 sequence with A133L, L138A
Experimental: as §1, §2

[6] = molecular target: T6, CD73-ND-K182A (human, UniProt P21589 27-317)
T6 construct: Alanine mutant of CD73-ND
T6 sequence: T1 sequence with A133L, K182A
Experimental: as §1, §2

B1: 48A11-HuV33 (antibody, human IgG4, V domains shown)
VH: QVQLVQSGAEVKKPGASVKVSCKASGYTFTSYWMHWVRQAPGQGLEWIGEINPSIGRTNYNEKFKSRVTLTRDTSTSTAYMELSSLRSEDTAVYYCARRVYGTMDYWGQGTLVTVSS
VL: DIQMTQSPSSLSASVGDRVTITCKASQDINSYLSWFQQKPGKSPKLLIYRANIWVDGVPSRFSGSGSGQDYTFTISSLQPEDIATYYCLQYDELYTFGQGTKVEIK
notes: Humanized
For B1, the “Ratio(EC50)” value [1] was 169 fold, the “Ratio(EC50)” value [2] was 1.3 fold and the “Ratio(EC50)” value [3] was 1.1 fold. The “Ratio(EC50)” value [4] was 1 fold, the “Ratio(EC50)” value [5] was 1.2 fold and the “Ratio(EC50)” value [6] was 1 fold.
